Measurements taken from PMC11065122 (Journal of the American Chemical Society, 2023).

How the values were obtained:
PARP14^cat = experiment: PARP14cat mono-ADP-ribosylation of substrate peptides, RP-HPLC/MS; type: biochemical; conditions: after PARP14^cat reaction condition optimization, NAD+, listed as MP^B
MP^(A (E9D)) D9ADPr1 = experiment: fluorescence polarisation
MP^A E9ADPr1 = experiment: fluorescence polarisation
MP^A R5ADPr1 = experiment: fluorescence polarisation
MP^A S7ADPr1 = experiment: fluorescence polarisation

Substance	conversion to mono-ADP-ribosylated product (ADPr1) (PARP14^cat)	Kd (MP^(A (E9D)) D9ADPr1)	Kd (MP^A E9ADPr1)	Kd (MP^A R5ADPr1)	Kd (MP^A S7ADPr1)
GWTARKSAEVGAGK [MP^A]	no activity was detected				
pan-ADP-ribose detection reagent (an Af1521 macrodomain-Fc region fusion) (Fc fusion)		1810 nM	732 nM	15.6 nM	1170 nM
